Target: recombinant human soluble FcγRIIIa glycoprotein with a C-terminal hexahistidine tag (N-glycosylation sites kept at Asn45 and Asn162 only) (human)
Assay: high-speed atomic force microscopy (HS-AFM), bound-state dwell time

dwell time | stoichiometry N | Substance
1 s | 1 | trastuzumab, anti-HER2 humanized IgG1 (G1m17,1; Km3) (antibody)
1 s | 1 | rituximab, anti-CD20 mouse/human-chimeric IgG1 (G1m17,1; Km3) (antibody)
